Experimental data taken from US6521740 (IMMUNEX, dated 2003).

Tests used:
recombinant human IL-1α = target: T1, recombinant human IL-1α (human, UniProt P01583 113-271, limits assumed); assay: Inhibition binding assay; soluble receptor against IL-1α binding to CB23 cells; same procedure
T1 construct: also called Interleukin-1α
T1 sequence (looked up): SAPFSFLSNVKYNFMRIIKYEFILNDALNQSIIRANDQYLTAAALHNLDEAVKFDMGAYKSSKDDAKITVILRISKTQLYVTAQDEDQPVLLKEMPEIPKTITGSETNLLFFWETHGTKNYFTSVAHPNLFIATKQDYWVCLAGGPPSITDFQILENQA

recombinant human IL-1β = target: T2, recombinant human IL-1β (human, UniProt P01584 117-269); assay: Inhibition binding assay; soluble receptor (COS-7 supernatant, serially diluted) against 125I-IL-1β binding to CB23 cells; phthalate oil separation
T2 construct: The 17.5 kD size is consistent with the mature form; also called rIL-1β
Description: The binding inhibition constant of the soluble human type II IL-1R, expressed and purified as described in Example 2 above, is determined by a inhibition binding assay in which varying concentrations of an IL-1β competitor is incubated with a constant amount of radiolabeled I-IL-1β and CB23 cells (an Epstein Barr virus transformed cord blood B lymphocyte cell line) expressing the type II IL-1R. Binding assays were also performed by a phtahlate oil separation method essentially as describe by Dower et al., *J. Immunol.* 132:751, 1984 and Park et al., *J. Biol. Chem.* 261:4177, 1986. Briefly, COS-7 cells were transfected with the expression vector pDC406 containing a cDNA encoding the soluble human type II IL-1R described above. Supernatants from the COS cells were harvested 3 days after transfection and serially diluted in binding medium (Roswell Park Memorial Institute (RPMI) 1640 medium containing 2% BSA, 20 mM Hepes buffer, and 0.2% sodium azide, pH 7.2) in […] to a volume of 50 μl/well. […] Duplicate 60 μl aliquots of the incubation mixture were then transferred to polyethylene centrifuge tubes containing a phthalate oil mixture comprising 1.5 parts dibutylphthalate, to 1 part bis(s-ethylhexyl)phthalate. […] The radioactivity of the cells was then determined on a gamma counter.

- KI (binding inhibition constant, given as an association constant) (recombinant human IL-1α): 1.4e+08 M⁻¹
- KI (binding inhibition constant, given as an association constant) (recombinant human IL-1β): ~3.5e+09 M⁻¹
B1: soluble human type II IL-1R (amino acids -13-333 of SEQ ID NO:1) (receptor)
chain: FTLQPAAHTGAARSCRFRGRHYKREFRLEGEPVALRCPQVPYWLWASVSPRINLTWHKNDSARTVPGEEETRMWAQDGALWLLPALQEDSGTYVCTTRNASYCDKMSIELRVFENTDAFLPFISYPQILTLSTSGVLVCPDLSEFTRDKTDVKIQWYKDSLLLDKDNEKFLSVRGTTHLLVHDVALEDAGYYRCVLTFAHEGQQYNITRSIELRIKKKKEETIPVIISPLKTISASLGSRLTIPCKVFLGTGTPLTTMLWWTANDTHIESAYPGGRVTEGPRQEYSENNENYIEVPLIFDPVTREDLHMDFKCVVHNTLSFQTLRTTVKEASS
notes: It includes 3 amino acids of the predicted transmembrane region (331-356)
